± gives the standard deviation.
Assay: protein stability index of a GFP-peptide fusion (GPS, HEK-293T) (PSI 1-6); higher = more stable
Details: c terminus: a fixed tail appended
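Further: 24-mer peptide tiles fused after GFP, lentivirally expressed, FACS-sorted into six equal bins by GFP/DsRed ratio, decoded by Illumina sequencing, PSI is the read-weighted mean bin number.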

| Sequence | protein stability index (treatment: DMSO) | protein stability index (treatment: MLN4924 1 uM, 8 h) |
| --- | --- | --- |
| LQELCYQWLRPHVSTKEQILDLLV [ZSCAN9] | 2.52 ± 0.094 | 2.45 ± 0.28 |
| HNSGPPPPPARGRGAPPPPPSRAP [WASL] | 5.25 ± 0.29 | 5.06 ± 0.15 |
| CGPPSLGAVLALVAIFIMSLNKRH [MFSD9] | 3.3 ± 0.89 | 3.41 ± 1.1 |
| QYPGNYEQQQILIRQLQEQHYQQY [ACBD3] | 3.17 ± 0.26 | 3.24 ± 0.18 |
| LDHDIFQLIDPDENKENEAFEFKK [CDC25A] | 4.07 ± 0.083 | 4.13 ± 0.52 |
| MALKTSLGSVQFMEQFCWPHLRSF | 3.01 ± 0.86 | 2.69 ± 0.73 |
| KSKAELQSEERKRIDELIESGKEE [KMT5A] | 5.59 ± 0.25 | 5.67 ± 0.21 |
| YNPDLKKVVEAHKIVLCAVSHVFM [RHOBTB3] | 2.95 ± 0.57 | 2.97 ± 0.26 |
| VADIDGQYAMTRAQRVRAAMFPET [CTNNB1] | 3.65 ± 0.25 | 3.6 ± 0.24 |
| ALLDQIRQGIQLNKTPGAPESSAL [WAS] | 3.3 ± 0.16 | 3.15 ± 0.53 |
| HHSRGNTNKFYMLDSRSTDRVLQW [KLHDC2] | 2.65 ± 0.39 | 2.72 ± 0.19 |
| RQITQVYGFYDECLRKYGNANVWK [PPP2CA] | 2.19 ± 0.33 | 2.33 ± 0.26 |
| PDGVWAYNRGEHPIFVNSPTLDAP [SMAD6] | 3.56 ± 0.34 | 3.62 ± 0.16 |
| PPGAEEPQAPPASRDEAALPELLL [RETREG3] | 5.25 ± 0.31 | 5.39 ± 0.17 |
| LALFPLLPKVLQKYWCVTATRVAP [ZBED1] | 2.98 ± 0.3 | 2.94 ± 0.94 |
| SLLNKKADGVKPQTNSTKNSAAAT [CAMK2B] | 4.43 ± 0.055 | 4.34 ± 0.23 |
| APDAHFTVDKQNISLWPREPPPKS [CD207] | 4.73 ± 0.24 | 4.78 ± 0.27 |
| LAGPNDRSDVEKGGKIIMPPSALD [UFD1] | 4.77 ± 0.11 | 4.97 ± 0.2 |
| RKGELVTASKAIIEKEYQPHVIVS [ADD1] | 3.62 ± 0.18 | 3.97 ± 0.21 |
| YEHHYHTLHGNVCSFCKRAFPSGH [ZNF511] | 2.73 ± 0.37 | 3.19 ± 0.54 |
| RKTVCHNGVLGLSRLLFFLLGFLR [LPCAT4] | 2.92 ± 0.35 | 3.04 ± 0.38 |
| PQELINYVQTVDFMRTDNTCVNLL [KLHL13] | 2.46 ± 0.35 | 2.51 ± 0.42 |
| SLFSQALKDEEAKVLQLTVRCEAL [CCDC89] | 2.8 ± 0.26 | 2.76 ± 0.17 |

| Sequence | protein stability index (treatment: DMSO) | protein stability index (treatment: MLN4924 1 uM, 8 h) |
| --- | --- | --- |
| SSAASLIDFLRVVRNQQSLAVSNM [PTPN9] | 2.26 ± 0.43 | 2.1 ± 0.26 |
| TCCYFKFIIEYYNIRPADSRWVRD [FBXO34] | 2.84 ± 1.2 | 2.29 ± 0.54 |
| MEDEMPKTLYVGNLSRDVTEALIL [TIA1] | 2.41 ± 0.36 | 2.63 ± 0.28 |
| INQPLPDLKNVKSKIGSTDNIKYQ [MAP2] | 4.29 ± 0.17 | 4.47 ± 0.16 |
| HGNSGHPLVLSYIDLSAWCYYCQA [HDAC6] | 2.73 ± 0.55 | 3.14 ± 0.58 |
| VAFGIEADDESLLRTSNGQPVKTA [DNAAF3] | 4.47 ± 0.23 | 4.52 ± 0.16 |
| TSQGQVRMRLFGQRCQKCSWSQYE [RTP4] | 2.4 ± 0.37 | 2.01 ± 0.39 |
| TDFFKNIMNFIDIVAIIPYFITLG [KCNA1] | 3.22 ± 0.62 | 3.6 ± 0.2 |
| SKLSRKYVKAKKSIDKDEEFAGSS [FAN1] | 4.84 ± 0.14 | 4.64 ± 0.31 |
| FVDFFVRLFTQLKFGVVQTSVEEC [CLCN6] | 3.59 ± 0.27 | 3.07 ± 0.68 |
| DLKARIDQNTVVTRQLSEENANLQ [MTUS2] | 4.83 ± 0.14 | 4.93 ± 0.083 |
| AASPELSALEEAFRRFAVHGDARA [TPPP] | 3.73 ± 0.12 | 3.74 ± 0.26 |
| CGTPLRKSNFRVQLFEDPTVDKEV [MNAT1] | 3.84 ± 0.09 | 3.75 ± 0.16 |
| LMSGCSSELKNRMEYALNMLLQRC [PLK2] | 2.04 ± 0.22 | 2.22 ± 0.29 |
| RQLDPSNCLGIRAFADTHSCRELL [KLHL20] | 3.07 ± 0.32 | 3.23 ± 0.3 |
| EENALWEEERAFWMENNGHVAGEQ [CCDC70] | 4.99 ± 0.22 | 5.29 ± 0.13 |
| GILRRILRTLRDFPAEERARVLDR [ANKRD9] | 2.39 ± 0.28 | 2.47 ± 0.65 |
| FYKDWWNSTSYSNYYRTWNVVVHD [SOAT1] | 2.46 ± 0.39 | 2.15 ± 0.31 |
| PPPPRSRGPPRGLRGGRGGSGGTR [RBMX] | 5.11 ± 0.5 | 4.96 ± 0.32 |
| NQNNYRLLSCGKILTGCKNMLFQQ [ACSBG2] | 2.9 ± 1.2 | 2.3 ± 0.69 |
| PCQKSPNGVRVFPPAMPPPATHLS [TRIM9] | 3.63 ± 0.31 | 3.78 ± 0.15 |
| SSYSLSDMVSNIELPTRIHEEVYF [MIA2] | 2.35 ± 0.39 | 2.5 ± 0.6 |
| MKFVPRYSLVLELSDSGAFRRSLH [APMAP] | 2.17 ± 0.54 | 2.03 ± 0.51 |

| Sequence | protein stability index (treatment: DMSO) | protein stability index (treatment: MLN4924 1 uM, 8 h) |
| --- | --- | --- |
| ERYFIPVSCFLTFNIFDWLGRSLT [SLC29A1] | 2.77 ± 0.26 | 3.08 ± 0.46 |
| DVQNKLKESAQCVGDEFLNCKLAT [SNX8] | 3.43 ± 0.21 | 3.42 ± 0.24 |
| GSNLDDAKGLAESLELPKAIQDQL [FANCE] | 5.08 ± 0.53 | 5.3 ± 0.33 |
| GIVLQGPALCFAAAIFSLFFVPLS [TMEM175] | 2.89 ± 0.34 | 2.83 ± 0.17 |
| DHSSQSEEEVVEGEKEVEALKKSA [BNIP3L] | 5.5 ± 0.36 | 5.67 ± 0.26 |
| IGRGTKVILHLKEDQTEYLEERRV [HSP90AB1] | 3.34 ± 0.16 | 3.57 ± 0.29 |
| AEVNAVDNEGNSALHIIVQYNRPI [FEM1B] | 2.48 ± 0.25 | 2.48 ± 0.23 |
| AKKGRRNQSVEPKKEEPEPETEAV [ZMYND11] | 5.53 ± 0.28 | 5.66 ± 0.21 |
| LIPGDAYTDYVATRWYRAPELLVG [CDKL4] | 2.18 ± 0.22 | 2.18 ± 0.071 |
| SEEAVQKLATCYFFTVEFGLCKQD [TPH1] | 2.3 ± 0.61 | 2.27 ± 0.13 |
| ARHLREYQELLNVKMALDIEIATY [PRPH] | 2.34 ± 0.4 | 2.4 ± 0.37 |
| LWSDPMAQEGCKANTIRGGGCYFG [PPEF2] | 2.68 ± 0.73 | 2.5 ± 0.44 |
| IFCEEHFPVAEQDKLLKHMIIEHK [ZNF277] | 2.75 ± 0.23 | 3.01 ± 0.4 |
| LVWRNSIRSSFISSLSFFLKKMGK [FBXO39] | 2.65 ± 0.65 | 2.9 ± 0.46 |
| NPWNWGKLAEAYLNLGPALSAALA [C8orf76] | 2.57 ± 0.26 | 2.44 ± 0.15 |
| LRREPSERLTAPEILLHPWFESVL [TRIB1] | 2.51 ± 0.25 | 2.74 ± 0.52 |
| SVSLQINCQSVAQMNLLQKYSLLK [DLC1] | 2.2 ± 0.12 | 2.13 ± 0.22 |
| KQECLITTFQDVYFVSESFEDAKE [TPH1] | 4.08 ± 0.73 | 4.45 ± 0.36 |
| GSSRSPGSKARAEGRGPVTPLHLD [PLEKHN1] | 4.91 ± 0.16 | 4.74 ± 0.21 |
| LVFPSSSSSSSSQAPGQPPGNQAE [ZBTB22] | 5.06 ± 0.2 | 4.71 ± 0.067 |
| LDLAGNNIPGDVLRAVEQAMGHSQ [LRRC45] | 4.45 ± 0.39 | 4.44 ± 0.28 |
| SINALLQAEVLSRQITSPVSGING [HNF4A] | 2.7 ± 0.13 | 2.67 ± 0.2 |
| LLFKYQMKEPITKAEILESVIKNY [MAGEA10] | 2.53 ± 0.32 | 2.74 ± 0.29 |

| Sequence | protein stability index (treatment: DMSO) | protein stability index (treatment: MLN4924 1 uM, 8 h) |
| --- | --- | --- |
| QLPPVVPVSKPGALRRSLSRSMSQ [TCAP] | 3.97 ± 0.13 | 3.96 ± 0.13 |
| TSENLKLVHIVCHKKTTHKLNCDP [DFFB] | 2.81 ± 0.19 | 2.97 ± 0.21 |
| QEAFLVQEVVELPVTERQIEREHL [TBC1D10A] | 4.94 ± 0.25 | 4.71 ± 0.23 |
| DRAAKRLSLESEGAGEGAAASPEL [TPPP] | 5.38 ± 0.14 | 5.32 ± 0.37 |
| DLVQWTRHMEAVKAQLLEQAQGQL [SOAT2] | 2.62 ± 0.56 | 2.69 ± 0.24 |
| STTALGDKQRKANESKGTRESWDS [ELOA2] | 4.06 ± 0.49 | 4.34 ± 0.72 |
| ITAGGENVPPIPVETLVKKKIPII [ACSBG2] | 3.71 ± 0.32 | 3.96 ± 0.34 |
| HSFELDEKALASILLQDHIRDLDV [ATL3] | 3.26 ± 0.33 | 3.26 ± 0.29 |
| YKENFLKRFQLTKLPPYLIFCIKR [USP39] | 3.02 ± 0.77 | 2.82 ± 0.43 |
| LEEGSSFWNQGLTWKVLFCSMSAT [CLCN6] | 3.06 ± 0.55 | 2.63 ± 0.67 |
| IKRLWKDSGVQACFNRSREYQLND [GNAI1] | 2.4 ± 0.41 | 2.44 ± 0.72 |
| FQFLSWPDYGVPSSAASLIDFLRV [PTPN9] | 2.7 ± 0.36 | 2.53 ± 0.41 |
| PLLKDEGFAVKALWGRTQEEAEEL [GFOD1] | 5 ± 0.62 | 4.915 ± 0.038 |
| EPSSSKDSDENSKPSVDTEGPALV [MIA2] | 5.53 ± 0.45 | 5.51 ± 0.25 |
| KEIDDVIDEIISLESSYNDEMLSY [TFE3] | 3.27 ± 0.26 | 3.5 ± 0.3 |
| CQACRFMKCLKVGMLKEGVRLDRV [ESRRG] | 2.6 ± 0.45 | 2.04 ± 0.16 |
| GRVLLANSTQADEGKTKKGVLEAP [FBXO34] | 5.01 ± 0.17 | 4.9 ± 0.13 |
| NSESWGWDIGRGKLYHQSKGPGAP [SPSB2] | 3.63 ± 0.17 | 3.98 ± 0.25 |
| KRAFKIKDFANTIPGHGGIMDRFD [CDS2] | 2.77 ± 0.27 | 2.91 ± 0.42 |
| NDTKKMYAMKYMNKQKCVERNEVR [STK32A] | 3.71 ± 0.2 | 3.97 ± 0.33 |
| TREQLYQAIFHAVDQYLALPDVSL [MCOLN1] | 3.37 ± 0.54 | 2.67 ± 0.61 |

Source: the supplement of paper PMC10567573
